Assay results published in patent US10765616B2, “Oral formulation of polyglucosamine derivatives in combination with a non-fermentable sugar” (SYNEDGEN, INC., priority 2013, dated 2020).

Key:
S. mutans biofilms [1] = assay: Comparative biofilm reduction study of oral rinses and active ingredients (MBEC pegs); format: cell-based, Streptococcus mutans; conditions: 72 h S. mutans biofilms, treated 2 minutes twice (6-hour interval), vs water control, active ingredients at the concentration printed in the row or sentence
Protocol: Biofilms of S. mutans were grown on hydroxyapatite-coated pegs according to MBEC Assay™ methods for 72 hours, and then treated with the oral rinses or a water control. The corresponding active ingredients were also evaluated. The biofilms were exposed for 2-minutes, twice in a 6-hour interval to evaluate biofilm removal. Following treatment, biofilms were rinsed, fixed, and stained with 0.4% Crystal Violet, and remaining biofilm was quantitated via CFU or OD595 (Beenken and Smeltzer, 2003). Biofilms were analyzed in triplicate in at least 3 independent assays. Ratios were averaged from all assays and the percent biofilm reduced and standard error compared to water control is shown.

S. mutans biofilms [2] = assay: MBEC peg biofilm biomass reduction assay of active ingredients (twice daily, OD595); format: cell-based, Streptococcus mutans; conditions: 2 minutes, 8-hour interval, 32 μg/mL PAAG, 1.5% hydrogen peroxide, alcohol, lactoferrin, chlorhexidine
Protocol: The S. mutans biofilms were grown according to MBEC™ for High-throughput Screening methods (Innovotech) on a hydroxyapatite-coated peg lid placed in trough containing BHI media supplemented with 1% sucrose rocking for 72 hours. The pegs were treated twice daily with PAAG (30% functionalized, 86 kD) active ingredients (FIG. 9) at 8-hour intervals for 2-minutes. The biofilms were rinsed in PBS, and the pegs were removed and placed into 200 μl 95% ethanol each for 2 minutes to fix the biofilms. The MBEC-HTP biofilms were stained with 150 μl of 3% Crystal Violet dye each for 2 minutes, and rinsed five times with PBS. It was noted that chlorhexidine appears to “fix” the biofilm to the pegs. The bacteria may or may not be viable because OD measured biofilm biomass, not viable CFUs. The stained and rinsed MBEC-HTP biofilms were then placed in 150 μL ethanol for 1-minute to remove the dye/biofilm. Then 100 μL of the ethanol and dyed biofilm suspension was placed into a 96-well plate and the OD595 was measured to quantify the remaining stained biofilm biomass.

A431 epithelial cells = test system: A431 epithelial cells
Protocol: Human epithelial cell monolayers of A431 (ATCC CRL-1555) were seeded in tissue culture treated 96-well plates at a density of 2×10^4 cells/well in DMEM media supplemented with 10% FBS, 1% Penicillin-Streptomycin, and 1% Amphotericin B. Seeded cells were incubated at 37° C. with 5% CO2 for 48 hours. The media was removed and replaced with serum-free, antimicrobial-free media and rinsed one time for 30 seconds with PAAG Oral Formulation H, other oral products (Biotene, Corsodyl, Peroxyl, or Listerine), 32 μg/mL PAAG (30% functionalized, 86 kDa) and other active ingredients (0.029% lactoferrin, 0.2% chlorhexidine gluconate, 1.5% hydrogen peroxide, or 20% alcohol). Epithelial cell viability was determined by ATPLite Luminescence ATP Detection Assay System (PerkinElmer). Testing was done in duplicate.
Epithelial cell viability was compared between PAAG and other oral active ingredients and oral rinse products. Human epithelial cell monolayers were rinsed once for 30 seconds with each treatment. Following treatment, the epithelial cells were evaluated with ATP LITE Luminecence assay that measured viability via ATP. The data was normalized to untreated cells to compare percent survival (FIG. 4). […] Epithelial cell viability was determined by ATPLite Luminescence ATP Detection Assay System (Perkin Elmer) and compared to media rinsed cells.

B1: lactoferrin (protein, UniProt P02788 20-710, looked up)
Lactotransferrin: GRRRSVQWCAVSQPEATKCFQWQRNMRKVRGPPVSCIKRDSPIQCIQAIAENRADAVTLDGGFIYEAGLAPYKLRPVAAEVYGTERQPRTHYYAVAVVKKGGSFQLNELQGLKSCHTGLRRTAGWNVPIGTLRPFLNWTGPPEPIEAAVARFFSASCVPGADKGQFPNLCRLCAGTGENKCAFSSQEPYFSYSGAFKCLRDGAGDVAFIRESTVFEDLSDEAERDEYELLCPDNTRKPVDKFKDCHLARVPSHAVVARSVNGKEDAIWNLLRQAQEKFGKDKSPKFQLFGSPSGQKDLLFKDSAIGFSRVPPRIDSGLYLGSGYFTAIQNLRKSEEEVAARRARVVWCAVGEQELRKCNQWSGLSEGSVTCSSASTTEDCIALVLKGEADAMSLDGGYVYTAGKCGLVPVLAENYKSQQSSDPDPNCVDRPVEGYLAVAVVRRSDTSLTWNSVKGKKSCHTAVDRTAGWNIPMGLLFNQTGSCKFDEYFSQSCAPGSDPRSNLCALCIGDEQGENKCVPNSNERYYGYTGAFRCLAENAGDVAFVKDVTVLQNTDGNNNEAWAKDLKLADFALLCLDGKRKPVTEARSCHLAMAPNHAVVSRMDKVERLKQVLLHQQAKFGRNGSDCPDKFCLFQSETKNLLFNDNTECLARLHGKTTYEKYLGPQYVAGITNLKKCSTSPLLEACEFLRK
In the case of B1, the “Percent (%) Biomass Reduced” value (S. mutans biofilms [1]) is reported as 25.6 ± 4.3%, the “Percent (%) Biomass Reduced” value (S. mutans biofilms [1]; listed as lactoferrin) is reported as 25.6±4.3% and the “reduction in S. mutans biofilm biomass compared to water control” value (S. mutans biofilms [2]) is reported as “did not significantly reduce”. The epithelial cell viability (A431 epithelial cells) was “maintain epithelial cell viability”.
